Experimental data: patent publication CN101875694A

Molecular target: 重组人肿瘤坏死因子TNFα (Recombinant Human TNF-α, Peprotech Asia, Cat 300-01A) (human) (UniProt P01375)
Assay: cell-based or functional assay

Sequence of UniProt P01375 (P01375 77-233 limits assumed): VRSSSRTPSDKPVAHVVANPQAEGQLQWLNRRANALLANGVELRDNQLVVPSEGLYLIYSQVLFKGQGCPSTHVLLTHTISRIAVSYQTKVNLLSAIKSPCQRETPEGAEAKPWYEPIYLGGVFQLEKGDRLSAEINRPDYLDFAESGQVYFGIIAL

In the case of “野生型全长的D2E7抗体 (full-length wild-type D2E7) (antibody)”, the 小鼠存活率, C57BL/6 given 1μg rhTNFα and D-galactosamine, 5μg antibody is reported as 0%.
